Data as given in publication PMC3319870 (New Biotechnology, 2011).

Molecular target: Fyn SH3 domain, His6-tagged SUMO fusion (human, UniProt P06241 82-143)
Experiment: ELISA

Chain of Fyn SH3 domain, His6-tagged SUMO fusion (P06241 82-143): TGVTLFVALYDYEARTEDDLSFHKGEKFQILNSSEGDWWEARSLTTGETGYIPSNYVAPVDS

IC50: ~440 nM
Binder: VSLARRPLPPLPGGK [proline-rich peptide VSLARRPLPPLPGGK]
